Where a chain is given by its changes, count along the chain named. In names and notes the source's numbering stands.
Tests used:
Experiment in all cases: SPR; KD of SG1 divided by KD of variant;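 further: relative to parent M103205H795-SG1 carrying the SG1 human heavy chain constant region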
[1] = molecular target: T1, human FcγRIIaR extracellular domain, C-terminal His-tag (human, UniProt P12318 34-217)
T1 construct: also called human FcγRIIa (type R); FcgRIIaR; not shown: His-tag added to the C-terminus
T1 chain: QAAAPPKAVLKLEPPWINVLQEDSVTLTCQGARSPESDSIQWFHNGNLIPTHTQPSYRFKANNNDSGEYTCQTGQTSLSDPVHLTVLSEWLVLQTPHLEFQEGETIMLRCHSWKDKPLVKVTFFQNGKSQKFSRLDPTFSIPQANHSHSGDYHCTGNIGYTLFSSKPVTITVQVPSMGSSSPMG
Procedure: (§1) The kinetic analysis of interactions between these antibodies and FcγR was carried out using BIACORE® T200 or BIACORE® 4000 (GE Healthcare). HBS-EP+ (GE Healthcare) was used as the running buffer, and the measurement temperature was set to 25° C. A chip produced by immobilizing Protein A. Protein A/G or mouse anti-human IgG kappa light chain (BD Biosciences) onto a Series S Sensor Chip CM4 or CM5 (GE Healthcare) by the amine-coupling method was used. […] After the measurement, the antibody captured on the chip was washed off by allowing reaction with 10 mM glycine-HCl, pH1.5 and 25 mM NaOH so that the chip was regenerated and used repeatedly. The sensorgrams obtained as measurement results were analyzed by the 1:1 Langmuir binding model using the BIACORE® Evaluation Software to calculate the binding rate constant ka (L/mol/s) and dissociation rate constant kd (l/s), and the dissociation constant KD (mol/L) was calculated from these values. […] Regarding such interactions, KD values were calculated using the following 1:1 binding model described in BIACORE® T100 Software Handbook BR1006-48 Edition AE.

[2] = molecular target: T2, cynomolgus monkey FcγRIIa3 extracellular domain, C-terminal His-tag (cynomolgus monkey)
T2 construct: also called cyno FcγRIIa3; FcgRIIa3; not shown: His-tag added to the C-terminus
T2 chain: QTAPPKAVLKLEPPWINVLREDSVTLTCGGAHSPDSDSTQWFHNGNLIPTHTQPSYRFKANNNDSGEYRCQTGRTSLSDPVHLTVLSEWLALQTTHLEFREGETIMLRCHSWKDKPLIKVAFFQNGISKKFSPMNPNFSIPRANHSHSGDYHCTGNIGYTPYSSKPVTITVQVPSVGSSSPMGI
Procedure: as §1

[3] = molecular target: T3, cynomolgus monkey FcγRIIa2 extracellular domain, C-terminal His-tag (cynomolgus monkey)
T3 construct: also called cyno FcγRIIa2; FcgRIIa2; not shown: His-tag added to the C-terminus
T3 chain: T2 chain with I127K, K130N, P133H, R142Q
Procedure: as §1

[4] = molecular target: T4, human FcγRIIaH extracellular domain, C-terminal His-tag (human, UniProt P12318 34-217)
T4 construct: also called human FcγRIIa (type H); FcgRIIaH; not shown: His-tag added to the C-terminus
T4 sequence: T1 chain with R134H
Procedure: as §1

[5] = molecular target: T5, cynomolgus monkey FcγRIIb extracellular domain, C-terminal His-tag (cynomolgus monkey)
T5 construct: also called cyno FcγRIIb; cynoFcγRIIb; not shown: His-tag added to the C-terminus
T5 chain: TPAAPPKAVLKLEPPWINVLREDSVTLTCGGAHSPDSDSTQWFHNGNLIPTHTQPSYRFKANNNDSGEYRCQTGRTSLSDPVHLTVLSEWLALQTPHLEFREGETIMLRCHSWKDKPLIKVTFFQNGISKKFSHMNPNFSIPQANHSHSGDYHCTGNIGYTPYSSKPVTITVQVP
Procedure: as §1

[6] = molecular target: T6, human FcγRIIb extracellular domain, C-terminal His-tag (human, UniProt P31994 43-217)
T6 construct: also called FcgRIIb; not shown: His-tag added to the C-terminus
T6 sequence: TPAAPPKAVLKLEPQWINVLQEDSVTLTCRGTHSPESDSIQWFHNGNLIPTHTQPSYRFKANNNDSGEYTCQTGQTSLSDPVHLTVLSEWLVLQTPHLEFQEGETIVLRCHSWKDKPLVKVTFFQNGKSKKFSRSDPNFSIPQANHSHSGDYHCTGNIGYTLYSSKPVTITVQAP
Procedure: as §1

[7] = molecular target: T7, cynomolgus monkey FcγRIIIaS extracellular domain, C-terminal His-tag (cynomolgus monkey, UniProt A3RFZ7 21-206 (rhesus entry))
T7 construct: also called cyno FcγRIIIaS; FcgRIIIaS; not shown: His-tag added to the C-terminus
Procedure: as §1

T7 sequence (A3RFZ7 21-206): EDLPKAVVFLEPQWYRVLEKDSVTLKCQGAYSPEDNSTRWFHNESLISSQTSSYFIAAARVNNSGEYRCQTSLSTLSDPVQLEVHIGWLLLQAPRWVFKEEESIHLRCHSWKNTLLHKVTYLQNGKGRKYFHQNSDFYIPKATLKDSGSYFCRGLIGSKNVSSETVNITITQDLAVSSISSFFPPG

B1: MS1032LO06-SG1 (M103205H795-SG1/M103202L889-SK1) (antibody, human IgG1, kappa)
heavy: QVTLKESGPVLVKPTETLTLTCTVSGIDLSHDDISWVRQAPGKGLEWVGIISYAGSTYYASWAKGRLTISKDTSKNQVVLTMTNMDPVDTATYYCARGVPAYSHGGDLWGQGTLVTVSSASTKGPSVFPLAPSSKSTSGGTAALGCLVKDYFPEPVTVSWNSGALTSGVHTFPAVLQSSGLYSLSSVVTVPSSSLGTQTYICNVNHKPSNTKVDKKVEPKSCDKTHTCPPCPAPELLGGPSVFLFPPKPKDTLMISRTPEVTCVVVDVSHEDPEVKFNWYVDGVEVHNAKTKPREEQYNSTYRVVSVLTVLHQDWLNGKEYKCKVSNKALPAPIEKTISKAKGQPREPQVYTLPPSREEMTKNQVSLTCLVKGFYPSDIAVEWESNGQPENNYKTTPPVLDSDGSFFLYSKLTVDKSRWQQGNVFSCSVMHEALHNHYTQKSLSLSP
light: DIVMTQSPATLSLSPGERATLSCTSSQSVYHANWLSWFQQKPGQPPKLLIYWASTLAYGVPSRFSGSGSGTDFTLTISSLQPEDAATYYCAGGYGGGRYAFGQGTKVEIKRTVAAPSVFIFPPSDEQLKSGTASVVCLLNNFYPREAKVQWKVDNALQSGNSQESVTEQDSKDSTYSLSSTLTLSKADYEKHKVYACEVTHQGLSSPVTKSFNRGEC
notes: Anti-latent myostatin antibody
- KD fold (SG1 = 1) [1]: 1 fold
- KD fold (SG1 = 1) [2]: 1 fold
- KD fold (SG1 = 1) [3]: 1 fold
- KD fold (SG1 = 1) [4]: 1 fold
- KD fold (SG1 = 1) [5]: 1 fold
- KD fold (SG1 = 1) [6]: 1 fold
- KD fold (SG1 = 1) [7]: 1 fold

B2: MS1032LO06-MY201 (M103205H795-MY201/M103202L889-SK1) (antibody, human IgG1, kappa)
heavy: QVTLKESGPVLVKPTETLTLTCTVSGIDLSHDDISWVRQAPGKGLEWVGIISYAGSTYYASWAKGRLTISKDTSKNQVVLTMTNMDPVDTATYYCARGVPAYSHGGDLWGQGTLVTVSSASTKGPSVFPLAPSSKSTSGGTAALGCLVKDYFPEPVTVSWNSGALTSGVHTFPAVLQSSGLYSLSSVVTVPSSSLGTQTYICNVNHKPSNTKVDKKVEPKSCDKTHTCPPCPAPELLNGPSVFLFPPKPKDTLMISRTPEVTCVVVDVSDEDPEVKFNWYVDGVEVHNAKTKPREEQYNSTYRVVSVLTVLHQDWLNGKEYKCKVSNKALPKPIEKTISKAKGQPREPQVYTLPPSREEMTKNQVSLTCLVKGFYPSDIAVEWESNGQPENNYKTTPPVLDSDGSFFLYSKLTVDKSRWQQGNVFSCSVMHEALHNHYTQKSLSLSP
light: B1 light
notes: CH MY201 = SG1 with G236N/H268D/A330K (EU numbering); also called MS103205H795-MY201
- KD fold (SG1 = 1) [1]: 0.8 fold
- KD fold (SG1 = 1) [2]: 4.9 fold
- KD fold (SG1 = 1) [3]: 4 fold
- KD fold (SG1 = 1) [4]: 0.9 fold
- KD fold (SG1 = 1) [5]: 5.8 fold
- KD fold (SG1 = 1) [6]: 5.6 fold
- KD fold (SG1 = 1) [7]: 0.08 fold

B3: MS1032LO06-MY351 (M103205H795-MY351/M103202L889-SK1) (antibody, human IgG1, kappa)
heavy: B2 heavy with Q313R, D415K
light: B1 light
notes: CH MY351 = SG1 with G236N/H268D/Q311R/A330K/D413K (EU numbering); also called MS103205H795-MY351
- KD fold (SG1 = 1) [1]: 0.6 fold
- KD fold (SG1 = 1) [2]: 4 fold
- KD fold (SG1 = 1) [3]: 3.6 fold
- KD fold (SG1 = 1) [4]: 0.7 fold
- KD fold (SG1 = 1) [5]: 5 fold
- KD fold (SG1 = 1) [6]: 4.9 fold
- KD fold (SG1 = 1) [7]: 0.07 fold

B4: MS1032LO06-MY352 (M103205H795-MY352/M103202L889-SK1) (antibody, human IgG1, kappa, name in EU numbering)
heavy: B2 heavy with Q313R, D415R
light: B1 light
notes: Printed substitutions: G236N/H268D/Q311R/A330K/D413R (EU numbering); also called MS103205H795-MY352
- KD fold (SG1 = 1) [1]: 0.6 fold
- KD fold (SG1 = 1) [2]: 3.9 fold
- KD fold (SG1 = 1) [3]: 3.5 fold
- KD fold (SG1 = 1) [4]: 0.7 fold
- KD fold (SG1 = 1) [5]: 4.7 fold
- KD fold (SG1 = 1) [6]: 4.6 fold
- KD fold (SG1 = 1) [7]: 0.07 fold

B5: MS1032LO06-PK55 (M103205H795-PK55/M103202L889-SK1) (antibody, human IgG1, kappa)
heavy: B2 heavy with Q313R, P345R
light: B1 light
notes: CH PK55 = SG1 with G236N/H268D/Q311R/A330K/P343R (EU numbering); also called MS103205H795-PK55
- KD fold (SG1 = 1) [1]: 0.7 fold
- KD fold (SG1 = 1) [2]: 4.3 fold
- KD fold (SG1 = 1) [3]: 4.1 fold
- KD fold (SG1 = 1) [4]: 1.1 fold
- KD fold (SG1 = 1) [5]: 5.4 fold
- KD fold (SG1 = 1) [6]: 6.3 fold
- KD fold (SG1 = 1) [7]: 0.08 fold

B6: MS1032LO06-PK56 (M103205H795-PK56/M103202L889-SK1) (antibody, human IgG1, kappa)
heavy: B2 heavy with Q313R, P345R, D415R
light: B1 light
notes: CH PK56 = SG1 with G236N/H268D/Q311R/A330K/P343R/D413R (EU numbering); also called MS103205H795-PK56
- KD fold (SG1 = 1) [1]: 0.5 fold
- KD fold (SG1 = 1) [2]: 3.5 fold
- KD fold (SG1 = 1) [3]: 3.1 fold
- KD fold (SG1 = 1) [4]: 0.8 fold
- KD fold (SG1 = 1) [5]: 3.9 fold
- KD fold (SG1 = 1) [6]: 4.7 fold
- KD fold (SG1 = 1) [7]: 0.06 fold

B7: MS1032LO06-PK57 (M103205H795-PK57/M103202L889-SK1) (antibody, human IgG1, kappa)
heavy: B2 heavy with Q313R, N386R, D415R
light: B1 light
notes: CH PK57 = SG1 with G236N/H268D/Q311R/A330K/N384R/D413R (EU numbering); also called MS103205H795-PK57
- KD fold (SG1 = 1) [1]: 0.5 fold
- KD fold (SG1 = 1) [2]: 2.7 fold
- KD fold (SG1 = 1) [3]: 2.8 fold
- KD fold (SG1 = 1) [4]: 0.7 fold
- KD fold (SG1 = 1) [5]: 3.8 fold
- KD fold (SG1 = 1) [6]: 4.1 fold
- KD fold (SG1 = 1) [7]: 0.06 fold
